{"source": "paper PMC4117942", "about": "(Genes & Development, 2014)", "molecules": {"B1": {"name": "D. melanogaster Rhino chromodomain (19–85) (domain or fragment)", "chain": "DHVEEYVVEKILGKRFVNGRPQVLVKWSGFPNENNTWEPLENVGNCMKLVSDFESEVFRLHRKAAAK"}}, "key": {"[1]": {"target": "Rhino chromodomain (23–85) (D. melanogaster) (UniProt Q7JXA8)", "assay": "ITC"}, "[2]": {"target": "B1", "assay": "crystal structure"}, "crystal structure": {"target": "the molecule itself", "assay": "crystal structure"}}}
{"molecule": "H3(1–15)K9me2 peptide (from UniProt P02299 2-16)", "values": [{"measurement": "Kd", "setting": "[1]", "result": 28.4, "unit": "µM"}]}
{"molecule": "H3(1–15)K9me3 peptide (from UniProt P02299 2-16)", "values": [{"measurement": "Kd", "setting": "[1]", "result": 21.8, "unit": "µM"}]}
{"molecule": "ARTKQTARKSTGGKA (trimethyl-lysine at 9 (K9me3))", "note": "[H3(1–15)K9me3 peptide]", "values": [{"measurement": "binding result", "setting": "[2]", "result": "binds"}]}
{"molecule": "B1", "values": [{"measurement": "binding result", "setting": "crystal structure", "result": "binds"}]}
